Laboratory results: the supplement of paper PMC9170038

Tested on: MS2 coat protein
Assay: apparent KD of MS2 coat protein; designed switch direction (-1 OFF switch, 1 ON switch): 1; higher = weaker reporter binding
Outline: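 On Illumina chips, designed RNA switches with common flanks were made by stalled E. coli RNA polymerase. Titrations with SNAP-549-labelled MS2 coat protein, doubling from 0.7 or 1.5 nM to 3 µM, were done with no input, with 200 uM small-molecule ligand, or with an oligonucleotide input. Apparent KD is the median per design over clusters, from curve fits of normalised cluster fluorescence.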

[1] = input ligand: microRNA oligo, concentration not stated
[2] = Eterna round: R95, input ligand: FMN 200 uM
[3] = Eterna round: R95, input ligand: microRNA oligo, concentration not stated
[4] = Eterna round: R95, input ligand: none

UUAUCUUUCCGAGGAUAUCCAUAUAAUUUACAUGAGGAUCACCCAUGUUAUUGGGAGUUUUUUUAGGAGAAGGCGGUUGUAGAU [JR_SSNG2_Sub051] (Eterna round: R96, puzzle: Same State NG 2)
apparent KD of MS2 coat protein (input ligand: FMN 200 uM): 85.1 nM | apparent KD of MS2 coat protein [1]: 61.4 nM | apparent KD of MS2 coat protein (input ligand: none): 71.1 nM

UUUAGCGUUACAGGAUAUGGUGAGGAUCACCCACUAGAAGGGUAAACAUGUGCGUCGUACAUGAGGAUCACCCAUGUAGGGCGU (Eterna round: R96, puzzle: Same State NG 1)
apparent KD of MS2 coat protein (input ligand: FMN 200 uM): 14.4 nM | apparent KD of MS2 coat protein [1]: 13.7 nM | apparent KD of MS2 coat protein (input ligand: none): 22.6 nM

GGUCCAGCCUGAGCUGGACAAAAGCAUGUACAUGAGGAUCACCCAUGUCAUGUACAAGCUUUUUGCUCGUCUUAAGU [Mat - hsa-mir-208a - 86] (puzzle: Sensor for hsa-mir-208a)
apparent KD of MS2 coat protein [2]: 508 nM | apparent KD of MS2 coat protein [3]: 16.8 nM | apparent KD of MS2 coat protein [4]: 927 nM

GAGAGAGGAAGCGAGGAUAUCGUGUUGGGUACAUGAGGAUCACCCAUGUUGUAGGUAGAGGUAGGCGAGAAGGCGCAGGAGAGGU [JR_SS2_Sub096] (puzzle: Same State 2)
apparent KD of MS2 coat protein [2]: 105 nM | apparent KD of MS2 coat protein [3]: 67 nM | apparent KD of MS2 coat protein [4]: 195 nM

UUGAAGAAUUAAGGAUAUCGAGUACAUAUGUUAAACAUGAGGAUCACCCAUGUGGGUUGCGGUAUCGAGAAGGUAAAAUACAAG [Mat - Same State NG 2 - JL mod - D58] (Eterna round: R96, puzzle: Same State NG 2)
apparent KD of MS2 coat protein (input ligand: FMN 200 uM): 28.8 nM | apparent KD of MS2 coat protein [1]: 26.6 nM | apparent KD of MS2 coat protein (input ligand: none): 33.8 nM

CGUCCAGCCUGAGCUGGACAAAAGCAUGUACAUGAGGAUCACCCAUGUUCAUGUACAAGCUUUUUGCUCGUCUUACU [salish99_208a_r3_092x] (puzzle: Sensor for hsa-mir-208a)
apparent KD of MS2 coat protein [2]: 590 nM | apparent KD of MS2 coat protein [3]: 15.7 nM | apparent KD of MS2 coat protein [4]: 793 nM

GCUACCAUUGAAGCCAACAUGAGGAUCACCCAUGUAUGUUGGCAGGAUAUCGAUUGCAAAGCGAUCGAGAAGGGCUAAGGUAGC [Mat - Same State NG 3 - JL Mod - D86] (Eterna round: R96, puzzle: Same State NG 3)
apparent KD of MS2 coat protein (input ligand: FMN 200 uM): 92.2 nM | apparent KD of MS2 coat protein [1]: 62.8 nM | apparent KD of MS2 coat protein (input ligand: none): 117 nM

GGUCGGAACCACAUGAGGAUCACCCAUGUUCCGGAAACGGCACAGGAUAUCUGUCCGAAAAGGUCAGAGAAGGGUGAACCGACC [Fiskers NG3ss - 76] (Eterna round: R96, puzzle: Same State NG 3)
apparent KD of MS2 coat protein (input ligand: FMN 200 uM): 285 nM | apparent KD of MS2 coat protein [1]: 247 nM | apparent KD of MS2 coat protein (input ligand: none): 445 nM

GAGCCAGUCCGAGGAUAUUCAUAAAUUAAAUACAUGAGGAUCACCCAUGUAGGCAGAGAGCCUUGGGAGAAGGCGGACUGGCUC [Xeonanisa>>3] (Eterna round: R96, puzzle: Same State NG 2)
apparent KD of MS2 coat protein (input ligand: FMN 200 uM): 10.9 nM | apparent KD of MS2 coat protein [1]: 25.5 nM | apparent KD of MS2 coat protein (input ligand: none): 37.3 nM

GUUUGACAUGAGGAUCACCCAUGUCAUACGGACACAGGAUAUCGUGGCCUGAAGCCGUCAUGAGAAGGGUGACCAA [Ceaza] (puzzle: Same State 1)
apparent KD of MS2 coat protein [2]: 33.8 nM | apparent KD of MS2 coat protein [3]: 14.3 nM | apparent KD of MS2 coat protein [4]: 12.5 nM

AGGCUCAGAGCAGGAUAUAUGUCUCGAGCUUCGGCUCGAGACAUGAGGAUCACCCAUGUAAUAACAUAGAAGGGCUCUGAGCCA [SSNG2/1-B1] (Eterna round: R96, puzzle: Same State NG 2)
apparent KD of MS2 coat protein (input ligand: FMN 200 uM): 11.2 nM | apparent KD of MS2 coat protein [1]: 45.8 nM | apparent KD of MS2 coat protein (input ligand: none): 63.4 nM

AGUCCAGCCUGAGCUGGACAAGAGCAUGUACAUGAGGAUCACCCAUGUCAUGUACAAGCUUUUUGCUCGUCUUAAUA [Zipper 49 - 2] (puzzle: Sensor for hsa-mir-208a)
apparent KD of MS2 coat protein [2]: 470 nM | apparent KD of MS2 coat protein [3]: 14.9 nM | apparent KD of MS2 coat protein [4]: 530 nM

AUUAAUUAAUUAAUACAUGAGGAUCACCCAUGUAAUAAGAUCAAGGAUAUCAGCUCGAAUAGAGCUGAGAAGGUGAUCACAUGU [SSNG3/17-B1] (Eterna round: R96, puzzle: Same State NG 3)
apparent KD of MS2 coat protein [1]: 337 nM

GAGUAGUUGGAAGGAUAUCGAUUGUUAUAGAAUCGAGAAGGUCCUAACAUGAGGAUCACCCAUGUAGGACUAUUCCUGUGUAUC [Parity 76 - Jieux - Same State NG 1] (Eterna round: R96, puzzle: Same State NG 1)
apparent KD of MS2 coat protein [1]: 8.12 nM

UGGUACAUGGGAGGAUAUCCUCAGGAGACAUGAGGAUCACCCAUGUAAUUAAAGCCGAAAGGCAUGGAGAAGGCCCAUGUACCU [JL SSNG1 3.79] (Eterna round: R96, puzzle: Same State NG 2)
apparent KD of MS2 coat protein (input ligand: FMN 200 uM): 20.1 nM | apparent KD of MS2 coat protein [1]: 172 nM | apparent KD of MS2 coat protein (input ligand: none): 131 nM

UGCAUACAUGAGGAUCACCCAUGUCAACUUAGUCGAGGAUAUGGGCAGCCCUGAGGCGAACCAGAAGGCGAAUUGU [JL-ss1-3.01 ViennaUCT mod] (puzzle: Same State 1)
apparent KD of MS2 coat protein [3]: 94.5 nM

AUAAAACACAUGAGGAUCACCCAUGUGGCCGUAGUCGGCACACAGGAUAUCAAGCAACUAGAGCUUGAGAAGGGUGAGACAAAA [Raar] (Eterna round: R96, puzzle: Same State NG 3)
apparent KD of MS2 coat protein (input ligand: FMN 200 uM): 179 nM | apparent KD of MS2 coat protein [1]: 4.09 nM | apparent KD of MS2 coat protein (input ligand: none): 250 nM

GUGGUCAGACAUGAGGAUCACCCAUGUGGAAUAAAUAAGGUCAAGGAUAUUGAAUAUAGGAUAUACAAGAAGGUGAGGUUGGUG (Eterna round: R96, puzzle: Same State NG 3)
apparent KD of MS2 coat protein (input ligand: FMN 200 uM): 140 nM | apparent KD of MS2 coat protein [1]: 94.9 nM | apparent KD of MS2 coat protein (input ligand: none): 115 nM

GCUCGGCUGAUGGCCUACAUGAGGAUCACCCAUGUGAGUGGGCAGGAUAUCUAGAUUAAGGAUGUAGAGAAGGGCCUGCCGAGC [SameState NG3 #37] (Eterna round: R96, puzzle: Same State NG 3)
apparent KD of MS2 coat protein (input ligand: FMN 200 uM): 708 nM | apparent KD of MS2 coat protein [1]: 131 nM | apparent KD of MS2 coat protein (input ligand: none): 496 nM

GCUAGGAAUUAAGCCAACAUGAGGAUCACCCAUGUAUGUUGGUAGGAUAUCGUUUGCAAAGCAAACGAGAAGGGCUAACCUAGC [Mat - Same State NG 3 - JL Mod - D72] (Eterna round: R96, puzzle: Same State NG 3)
apparent KD of MS2 coat protein (input ligand: FMN 200 uM): 80.9 nM | apparent KD of MS2 coat protein [1]: 55.8 nM | apparent KD of MS2 coat protein (input ligand: none): 85.3 nM

AGCCGAGACACAGGAUAUAGAUAUCUACAUGAGGAUCACCCAUGUAGCAACACGUGGUAGUGAUUCUAGAAGGGUGCUCGGCGC [Omei SS(NG)2 Cv8] (Eterna round: R96, puzzle: Same State NG 2)
apparent KD of MS2 coat protein (input ligand: FMN 200 uM): 25.3 nM | apparent KD of MS2 coat protein [1]: 170 nM | apparent KD of MS2 coat protein (input ligand: none): 189 nM

GUGGUCAGACAUGAGGAUCACCCAUGUGGAAUAAAUAAGGGAGAGGAUAUAUAAUAUAGGAUAUAAUAGAAGGCUCGGUUGGUG (Eterna round: R96, puzzle: Same State NG 3)
apparent KD of MS2 coat protein [1]: 89.5 nM
